Target: T1, NT-L +278 VP16 (R23570V) (Xanthomonas sp. (engineered), UniProt P14727 SEQ:1-1013)
T1 chain: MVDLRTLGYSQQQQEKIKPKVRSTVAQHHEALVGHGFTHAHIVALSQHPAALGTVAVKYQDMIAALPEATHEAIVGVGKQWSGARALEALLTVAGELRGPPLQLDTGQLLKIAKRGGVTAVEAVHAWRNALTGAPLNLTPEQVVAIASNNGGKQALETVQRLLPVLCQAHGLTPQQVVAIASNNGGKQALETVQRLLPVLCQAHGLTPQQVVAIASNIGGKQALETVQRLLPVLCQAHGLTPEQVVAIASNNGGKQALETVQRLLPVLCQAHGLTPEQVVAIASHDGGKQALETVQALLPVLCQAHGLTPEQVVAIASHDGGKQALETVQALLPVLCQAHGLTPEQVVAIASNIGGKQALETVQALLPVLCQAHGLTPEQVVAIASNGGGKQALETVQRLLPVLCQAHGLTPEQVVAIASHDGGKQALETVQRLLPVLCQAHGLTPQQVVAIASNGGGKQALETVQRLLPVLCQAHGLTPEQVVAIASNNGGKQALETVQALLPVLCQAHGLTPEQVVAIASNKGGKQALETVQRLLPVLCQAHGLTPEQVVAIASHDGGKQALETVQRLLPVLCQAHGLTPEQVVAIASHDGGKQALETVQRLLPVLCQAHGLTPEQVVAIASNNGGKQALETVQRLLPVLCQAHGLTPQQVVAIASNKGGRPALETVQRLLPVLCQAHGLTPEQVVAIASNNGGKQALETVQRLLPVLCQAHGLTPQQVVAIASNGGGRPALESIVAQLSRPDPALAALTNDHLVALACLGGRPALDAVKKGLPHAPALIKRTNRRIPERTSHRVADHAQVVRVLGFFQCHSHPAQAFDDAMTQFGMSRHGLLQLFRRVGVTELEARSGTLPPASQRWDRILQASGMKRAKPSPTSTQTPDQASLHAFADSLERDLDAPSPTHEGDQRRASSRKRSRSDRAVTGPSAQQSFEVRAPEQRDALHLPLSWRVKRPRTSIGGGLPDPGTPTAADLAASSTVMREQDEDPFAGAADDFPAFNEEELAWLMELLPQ
Experiment: cell_activity; luciferase reporter with 2 sites
Conditions: tags: VP16

B1: NT-L target (NTF3 promoter) (dsDNA)
DNA 1: GGAGCCATCTGGCCGGGT
DNA 2: ACCCGGCCAGATGGCTCC
B1 was tested, and the activity was 74.5 fold activation.

Reference: patent US20110301073, “Novel DNA-binding proteins and uses thereof” (Sangamo BioSciences, Inc., published 2011)
